# Source: patent US12312397B2, “Anti-O2 antibodies and uses thereof” (priority 2016, dated 2025)
# Experiments:
# KPC strain Kp961842_O2 = assay: Lethal pneumonia model, KPC strain Kp961842_O2; type: in vivo, Klebsiella pneumoniae; conditions: C57/BL6 mice, 2e8 CFU; mAb 2 mg/kg 1 hour post infection; survival
# Experimental: (§1) C57/BL6 mice were obtained from Jackson Laboratories and maintained in a special pathogen-free facility. All animal experiments were conducted in accordance with Institutional Animal Care and Use Committee (IACUC) protocol and guidance. K. pneumoniae strains were grown on agar plates overnight and diluted in saline at proper concentration. The inoculum titer was determined by plating a serial dilution of bacteria onto agar plates prior to and post challenge. In acute pneumonia models, C57/BL6 mice were inoculated with 1e4 to 2e8 colony-forming units (CFU) of K. pneumoniae clinical isolates in 50 μl saline intranasally. Anti-K pneumoniae monoclonal antibodies (mAbs) and human IgG1 control antibodies were given 1-24 hour post bacterial challenge (therapeutic dosing). Mouse survival was monitored daily until up to day 8. Survival data of representative experiments were plotted in Graphpad Prism software.
# (§2) Mice were challenged with 2e8 CFU of Klebsiella pneumoniae Carbanpenemase (KPC) strain Kp961842_O2 or with 3e8 CFU of KPC strain Kp977778_O2, followed by the administration of anti-O2 mAbs. When administered at a concentration of 2 mg/kg 1 hour post bacterial infection, Class III anti-O2 LPS mAbs KPN42, KPN179-IgG1, and KPS44v2017 protected mice from lethal bacterial challenge with the multi-drug resistant KPC strains Kp961842_O2 (FIG. 6, left panel, and FIG. 10) and Kp977778_O2 (FIG. 6B, right panel).
# O1 LPS [1] = assay: ELISA binding to O1 LPS; parameters: species or system Klebsiella pneumoniae; conditions: secondary screening
# Experimental: The coated plates were incubated with cell culture supernatants from polyclonally stimulated lymphocytes (AMVBRA) or from monoclonal immortalized B cells (donor interrogations) containing fully human antibodies or with diluted plasma samples (PBMC donor selections) for 1 hour at room temperature. The plates were then washed with PBS containing 0.1% Tween-20 (PBS-T). Secondary antibody was added; either Alkaline Phosphatase-conjugated Goat Anti-Human IgG-AP (Southern Biotech, 2040-04, 1:1000 in PBS-B) or Peroxidase AffiniPure F(ab′)2 Fragment Goat Anti-Human IgG, Fc Fragment Specific (Jackson ImmunoResearch #309 036 098, 1:5000 in PBS-B) were used. Secondary antibodies were typically incubated for 1 h. Plates were washed three times with PBS-T, and P-NitroPhenyl Phosphate (pNPP, Sigma-Aldrich, cat #N2765-100TAB) or Sureblue (KPL, 53-00-03) substrates were added and incubated for 10 min or until the development of a colorimetric reaction. In the case of the HRP substrate Sureblue, the reaction was stopped by adding an equal volume of 0.2N HCl. The absorbance at 405 nm (pNPP) or 450 nm (Sureblue) was measured by a microplate reader (Biotek, Elx808).
# The coated plates were incubated with serial dilutions of the monoclonal antibodies for 1 hour at room temperature. The plates were then washed with PBS containing 0.1% Tween-20 (PBS-T). Alkaline Phosphatase-conjugated Goat Anti-Human IgG (Southern Biotech, 2040-04, 1:1000 in PBS-B) was added. The secondary antibody reactions were incubated for 1 h. Plates were washed three times with PBS-T, and P-NitroPhenyl Phosphate (pNPP, Sigma-Aldrich, cat #N2765-100TAB) substrate was added and incubated for 30 min or until the development of a colorimetric reaction. The absorbance at 405 nm was measured by a microplate reader (Biotek, Elx808). The data was plotted with Graphpad Prism software. Representative mAbs from each class were tested for their binding to O1 LPS (FIG. 2A) and O2 LPS (FIG. 2B), and EC50 values were obtained (FIG. 2C). The majority of the anti-O2 LPS mAbs bound to both O1 and O2 LPS by ELISA. […] None of these LPS mAbs bound to the 03, 04, 05, 07, or 012 LPS serotypes (see e.g., FIG. 1A).
# K. pneumoniae O1 = assay: Lethal O1 pneumonia model; type: in vivo, Klebsiella pneumoniae; parameters: key to Mouse protection models (O1): +++: Strongly positive activity; +: Positive activity; +/−: Somewhat positive depending upon the test conditions
# Experimental: as §1
# Mice were challenged with 2e8 CFU of Klebsiella pneumoniae Carbanpenemase (KPC) strain Kp961842_O2 or with 3e8 CFU of KPC strain Kp977778_O2, followed by the administration of anti-O2 mAbs. […]
# [2] = test system: O2 LPS activation of NF-κB in RAW264.7-lux cells; assay: LPS neutralization assay (NF-κB luciferase, RAW264.7-lux), O2 LPS; type: cell-based, murine; parameters: key to LPS Neut O2: +++: Strongly positive activity; +: Positive activity; +/−: Somewhat positive depending upon the test conditions; conditions: for neutralizing activity against O2 LPS (NF-κB activation): human IgG1 format; for neutralization of LPS-O2: secondary screening
# Method in brief: (§3)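 Serially diluted mAbs (human IgG1) pre-mixed 1:1 with LPS at 4 °C for 1 hr, then diluted 1:10 onto RAW264.7-lux cells carrying an NF-κB-driven firefly luciferase; 2.5 h at 37 °C. Luminescence read; % inhibition relative to no-antibody and negative-control mAb wells.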
# [3] = test system: O1 LPS activation of NF-κB in RAW264.7-lux cells; assay: LPS neutralization assay (NF-κB luciferase, RAW264.7-lux), O1 LPS; type: cell-based, murine; parameters: key to LPS Neut O1: +++: Strongly positive activity; +: Positive activity; +/−: Somewhat positive depending upon the test conditions; conditions: for neutralizing activity against O1 LPS (NF-κB activation): human IgG1 format; for neutralization of LPS-O1: secondary screening
# Method in brief: as §3
# O2 LPS = assay: ELISA binding to O2 LPS; parameters: species or system Klebsiella pneumoniae; conditions: secondary screening, ELISA
# Method in brief: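 Serial dilutions of monoclonal antibodies bound to LPS-coated plates for 1 h at room temperature, detected with alkaline phosphatase-conjugated anti-human IgG (1 h) and pNPP substrate (30 min). Absorbance read at 405 nm; EC50 values derived from binding curves.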
# [4] = test system: K. pneumoniae 43816ΔcpsBLux (O1); assay: Opsonophagocytic killing (OPK) assay, O1 capsule mutant; type: cell-based, Klebsiella pneumoniae; parameters: key to D Capsule OPK O1: +++: Strongly positive activity; +: Positive activity; +/−: Somewhat positive depending upon the test conditions
# Experimental: OPK activity of anti-O2 LPS mAbs was tested against O1 and O2 strains. Briefly, log phase cultures of luminescent K. pneumoniae strains 8570ΔcpsBLux (O2) and 43816ΔcpsBLux (O1) were diluted to ˜2×10^6 cells/ml. K. pneumoniae cells, 5e5/well dimethylformamide (DMF) differentiated HL-60 cells, cleared baby rabbit serum (1:10 Cedarlane), and a series dilution of antibodies (2 ng-2.5 μg/mL) were mixed in 96-well plates and incubated at 37° C. for two hours with shaking (250 rpm). The relative light units (RLUs) were then measured using a multi-mode microplate reader (Synergy 2, Biotek or envision multilabel plate reader, Perkin Elmer). The percentage of killing was determined by comparing RLU derived from assays with no antibodies to RLU derived from assays with anti-K. pneumoniae mAbs and assays performed with a negative control mAb. Positive killing was determined where the percentage of killing is above 40%.
# [5] = test system: K. pneumoniae 8570ΔcpsBLux (O2); assay: Opsonophagocytic killing (OPK) assay, O2 capsule mutant; type: cell-based, Klebsiella pneumoniae; parameters: key to D Capsule OPK O2: +++: Strongly positive activity; +: Positive activity; +/−: Somewhat positive depending upon the test conditions; conditions: for OPK activity against O2 capsule mutant: secondary screening
# Method in brief: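 Luminescent capsule-deficient K. pneumoniae strains were mixed with DMF-differentiated HL-60 cells, 1:10 baby rabbit serum and anti-O2 LPS mAbs (2 ng–2.5 μg/mL), then shaken for 2 h at 37 °C. Killing % came from luminescence (RLU) against no-antibody and negative-control mAb wells, with >40% scored as positive.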
# O1 LPS [6] = assay: Western blot of purified Klebsiella LPS serotypes, O1 LPS; type: binding, Klebsiella pneumoniae; conditions: FIG. 1A
# Source text: FIGS. 1A-B show the expansion of the O2 LPS serotype in multi-drug resistant (MDR) strains of Klebsiella pneumoniae.
# SDS-PAGE analysis followed by Silver Stain confirmed the purity of LPS. Human antibodies against O2 serotypes were then identified based on the reactivity of human B cells against the respective purified LPS. […] (FIG. 1A).
# KPC strain Kp977778_O2 = assay: Lethal pneumonia model, KPC strain Kp977778_O2; type: in vivo, Klebsiella pneumoniae; conditions: C57/BL6 mice, 3e8 CFU; mAb 2 mg/kg 1 hour post infection; survival
# Experimental: as §1, §2
molecule,measurement,setting,value
"KPL26: Class II anti-O2 antigen human mAb; VH SEQ ID NO: 89, VL SEQ ID NO: 90 (antibody, V domains shown, Description of Artificial Sequence: SyntheticKPL26 VH polypeptide; Description of Artificial Sequence: SyntheticKPL26 VL polypeptide) VH: EVQLVESGGGLVQSGGSLRLSCETSGFIFGSSWMTWVRQAPGKGLEWVATINPDGSATSYEDSVRGRFAVSRDNAKNSVYLQMNSLRAEDTAVYFCTRNKAYNALDYWGQGTLVTVSS VL: QSALTQPPSASGSPGQSVTLSCTGTSSDVGGNNYVSWYQQHPGKAPKLIIYEVSKRPSGVPNRFSGSKSGNTASLTVSGLQAEDEADYYCSSFGGSKMFGGGTKLTVL","protection from lethal bacterial challenge, Kp961842_O2",KPC strain Kp961842_O2,did not show protection
same,binding to LPS-O1,O1 LPS [1],confirmed to bind
same,protection in lethal O1 pneumonia model,"K. pneumoniae O1; mice, survival",moderate protection
same,Mouse protection models (O1),"K. pneumoniae O1; mouse pneumonia model, O1",+
same,LPS Neut O2,[2]; Table 7 summary,+
same,neutralizing activity against O2 LPS (NF-κB activation),[2],blocked
same,neutralization of LPS-O2,[2],neutralize
same,LPS Neut O1,[3]; Table 7 summary,+
same,neutralizing activity against O1 LPS (NF-κB activation),[3],blocked
same,neutralization of LPS-O1,[3],neutralize
same,binding to LPS-O2,O2 LPS,confirmed to bind
same,OPK activity against O1 strain,"[4]; 43816ΔcpsBLux (O1), positive killing above 40%",induced OPK activity
same,D Capsule OPK O1,[4]; capsule mutant strain 43816ΔcpsB lux (O1),+
same,OPK activity against O1 capsule mutant,[4]; secondary screening,showed OPK activity
same,OPK activity against O2 strain,"[5]; 8570ΔcpsBLux (O2), positive killing above 40%",induced OPK activity
same,D Capsule OPK O2,[5]; capsule mutant strain 8570ΔcpsB lux (O2),+
same,OPK activity against O2 capsule mutant,[5],showed OPK activity
"KPD1: Class I anti-O2 antigen human mAb; VH SEQ ID NO: 134, VL SEQ ID NO: 135 (antibody, V domains shown, Description of Artificial Sequence: SyntheticKPD1 VH polypeptide; Description of Artificial Sequence: SyntheticKPD1 VL polypeptide) VH: QVQLQESDPRLVKPSETLSLTCSVSGVSITSNTYWWAWIRQPPGKKLEWIGSLSYSGDTYYNPSLTSRVTISRDIHQNQFFLELNSVTAADTAMYYCARDPDIIRNFQFDYWGRGTLVTVSS VL: EIVLTQSPGILSLSPGERATLSCRVSQILYMSHLAWYQHKPGQAPRLLIYGASIRATGVPDRFSGSGSGTDFTLTISRLEPEDFAVYYCQQYGASPTFGQGTMVEIK","protection from lethal bacterial challenge, Kp961842_O2",KPC strain Kp961842_O2,did not protect
same,binding to LPS-O1,O1 LPS [1],showed binding
same,neutralizing activity against O2 LPS (NF-κB activation),[2],blocked
same,neutralization of LPS-O2,[2],neutralized
same,neutralizing activity against O1 LPS (NF-κB activation),[3],blocked
same,neutralization of LPS-O1,[3],neutralized
same,cross-reactivity with O1 LPS,O1 LPS [6],showed cross-reactivity with O1 LPS
same,"protection from lethal bacterial challenge, Kp977778_O2",KPC strain Kp977778_O2,did not protect
same,binding to LPS-O2,O2 LPS,showed binding
same,OPK activity against O2 capsule mutant,[5],showed OPK activity
